The chains are these.
B1: E-cadherin (receptor, human, UniProt P12830 155-882, looked up)
chain: DWVIPPISCPENEKGPFPKNLVQIKSNKDKEGKVFYSITGQGADTPPVGVFIIERETGWLKVTEPLDRERIATYTLFSHAVSSNGNAVEDPMEILITVTDQNDNKPEFTQEVFKGSVMEGALPGTSVMEVTATDADDDVNTYNAAIAYTILSQDPELPDKNMFTINRNTGVISVVTTGLDRESFPTYTLVVQAADLQGEGLSTTATAVITVTDTNDNPPIFNPTTYKGQVPENEANVVITTLKVTDADAPNTPAWEAVYTILNDDGGQFVVTTNPVNNDGILKTAKGLDFEAKQQYILHVAVTNVVPFEVSLTTSTATVTVDVLDVNEAPIFVPPEKRVEVSEDFGVGQEITSYTAQEPDTFMEQKITYRIWRDTANWLEINPDTGAISTRAELDREDFEHVKNSTYTALIIATDNGSPVATGTGTLLLILSDVNDNAPIPEPRTIFFCERNPKPQVINIIDADLPPNTSPFTAELTHGASANWTIQYNDPTQESIILKPKMALEVGDYKINLKLMDNQNKDQVTTLEVSVCDCEGAAGVCRKAQPVEAGLQIPAILGILGGILALLILILLLLLFLRRRAVVKEPLLPPEDDTRDNVYYYDEEGGGEEDQDFDLSQLHRGLDARPEVTRNDVAPTLMSVPRYLPRPANPDEIGNFIDENLKAADTDPTAPPYDSLLVFDYEGSGSEAASLSSLNSSESDKDQDYDYLNEWGNRFKKLADMYGGGEDD
notes: Endogenous membrane protein in fixed human cells or tissue, detected through an unnamed primary antibody and a fractional-initiator secondary antibody probe
B3: β-catenin (other, human, UniProt P35222 2-781, looked up)
chain: ATQADLMELDMAMEPDRKAAVSHWQQQSYLDSGIHSGATTTAPSLSGKGNPEEEDVDTSQVLYEWEQGFSQSFTQEQVADIDGQYAMTRAQRVRAAMFPETLDEGMQIPSTQFDAAHPTNVQRLAEPSQMLKHAVVNLINYQDDAELATRAIPELTKLLNDEDQVVVNKAAVMVHQLSKKEASRHAIMRSPQMVSAIVRTMQNTNDVETARCTAGTLHNLSHHREGLLAIFKSGGIPALVKMLGSPVDSVLFYAITTLHNLLLHQEGAKMAVRLAGGLQKMVALLNKTNVKFLAITTDCLQILAYGNQESKLIILASGGPQALVNIMRTYTYEKLLWTTSRVLKVLSVCSSNKPAIVEAGGMQALGLHLTDPSQRLVQNCLWTLRNLSDAATKQEGMEGLLGTLVQLLGSDDINVVTCAAGILSNLTCNNYKNKMMVCQVGGIEALVRTVLRAGDREDITEPAICALRHLTSRHQEAEMAQNAVRLHYGLPVVVKLLHPPSHWPLIKATVGLIRNLALCPANHAPLREQGAIPRLVQLLVRAHQDTQRRTSMGGTQQQFVEGVRMEEIVEGCTGALHILARDVHNRIVIRGLNTIPLFVQLLYSPIENIQRVAAGVLCELAQDKEAAEAIEAEGATAPLTELLHSRNEGVATYAAAVLFRMSEDKPQDYKKRLSVELTSSLFRTEPMAWNETADLGLDIGAQGEPLGYRQDDPSYRSFHSGGYGQDALGMDPMMEHEMGGHHPGADYPVDGLPDLGHAQDLMDGLPPGDSNQLAWFDTDL
notes: Endogenous protein in fixed human cells or tissue, detected through an unnamed primary antibody and a fractional-initiator secondary antibody probe

The target of the assay “β-catenin” is B3. The experiment in a line: HCR proximity imaging; A-431 cells positive sample, HeLa cells negative sample. Here is the method: (§1) For each pair of sample types, signal-to-background was calculated using the positive sample type to estimate signal plus background and the negative sample type to estimate background.
(§2) While A-431 cells formed the β-catenin:E-cadherin complex at the cell membrane of intercellular junctions,⁶³ HeLa cells express N-cadherin rather than E-cadherin^{64,65} and therefore lacked the β-catenin:E-cadherin complex.

Substrate in assay [1]: SON (human) (UniProt P18583)
The experiment in a line: HCR proximity imaging of the endogenous complex in fixed A-431 human cells; background from controls omitting the antibodies to one protein; SEM, N=3 cells.

Assay [2] addresses B1. The experiment in a line: HCR proximity imaging; A-431 cells (positive) against HeLa cells (negative, lacking E-cadherin); mean±SEM, N=3 wells. Here is the method:
as §1, §2

In assay [3] the target is B1. The experiment in a line: HCR proximity imaging in FFPE human breast tissue section; background from a region with low/no complex; SEM, N=3 regions. How it is done:
FIG. 16 depicts imaging the β-catenin:E-cadherin target complex in a highly autofluorescent FFPE human breast tissue section (5-μm thickness) using a pair of fractional-initiator probes, a proximity probe, and an HCR amplifier. Background was assessed by fluorescence in a region of the sample in which there is low/no abundance of the protein:protein complex. A high signal-to-background ratio was obtained (70±20) (standard error of the mean, N=3 representative regions).

Assay [4] has as its target B1. The experiment in a line: HCR proximity imaging; normal against invasive lobular carcinoma FFPE human breast tissue sections; mean±SEM, N=3 sections. Here is the method: as §1
The β-catenin:E-cadherin target complex was detected in highly autofluorescent FFPE human breast tissue sections. The β-catenin:E-cadherin complex is robustly formed in normal breast epithelial cells, but the expression of and interaction between the β-catenin and E-cadherin proteins is interrupted when breast epithelial cells become cancerous in the invasive lobular carcinoma disease process.^{66,67} Paired normal and invasive lobular carcinoma FFPE breast tissue sections from the same patient were evaluated for the β-catenin:E-cadherin target complex, yielding strong HCR signal in normal breast tissue (FIG. 45C; positive sample) and no visible staining in cancerous tissue (FIG. 45D; negative sample), with a signal-to-background ratio of 30±3 between the two tissue types (mean±SEM for representative regions of N=3 replicate sections).

Assay [5] has as its target B1. The experiment in a line: HCR proximity imaging of the endogenous complex in fixed A-431 human cells; background from controls omitting the antibodies to one protein; SEM, N=3 cells. Here is the method:
For each protein:protein complex, background was assessed by technical controls in which the antibodies corresponding to one protein of the complex were omitted, simulating a scenario in which the two proteins are not in a complex with one another. For each of three protein:protein target complexes, a high signal-to-background ratio was obtained: 170±10 (SC35:SON), 50±10 (β-catenin:E-cadherin), and 140±10 (α-tubulin:β-tubulin) (standard error of the mean, representative regions within N=3 cells).

SON (human), sequence (P18583 2-2426 limits assumed): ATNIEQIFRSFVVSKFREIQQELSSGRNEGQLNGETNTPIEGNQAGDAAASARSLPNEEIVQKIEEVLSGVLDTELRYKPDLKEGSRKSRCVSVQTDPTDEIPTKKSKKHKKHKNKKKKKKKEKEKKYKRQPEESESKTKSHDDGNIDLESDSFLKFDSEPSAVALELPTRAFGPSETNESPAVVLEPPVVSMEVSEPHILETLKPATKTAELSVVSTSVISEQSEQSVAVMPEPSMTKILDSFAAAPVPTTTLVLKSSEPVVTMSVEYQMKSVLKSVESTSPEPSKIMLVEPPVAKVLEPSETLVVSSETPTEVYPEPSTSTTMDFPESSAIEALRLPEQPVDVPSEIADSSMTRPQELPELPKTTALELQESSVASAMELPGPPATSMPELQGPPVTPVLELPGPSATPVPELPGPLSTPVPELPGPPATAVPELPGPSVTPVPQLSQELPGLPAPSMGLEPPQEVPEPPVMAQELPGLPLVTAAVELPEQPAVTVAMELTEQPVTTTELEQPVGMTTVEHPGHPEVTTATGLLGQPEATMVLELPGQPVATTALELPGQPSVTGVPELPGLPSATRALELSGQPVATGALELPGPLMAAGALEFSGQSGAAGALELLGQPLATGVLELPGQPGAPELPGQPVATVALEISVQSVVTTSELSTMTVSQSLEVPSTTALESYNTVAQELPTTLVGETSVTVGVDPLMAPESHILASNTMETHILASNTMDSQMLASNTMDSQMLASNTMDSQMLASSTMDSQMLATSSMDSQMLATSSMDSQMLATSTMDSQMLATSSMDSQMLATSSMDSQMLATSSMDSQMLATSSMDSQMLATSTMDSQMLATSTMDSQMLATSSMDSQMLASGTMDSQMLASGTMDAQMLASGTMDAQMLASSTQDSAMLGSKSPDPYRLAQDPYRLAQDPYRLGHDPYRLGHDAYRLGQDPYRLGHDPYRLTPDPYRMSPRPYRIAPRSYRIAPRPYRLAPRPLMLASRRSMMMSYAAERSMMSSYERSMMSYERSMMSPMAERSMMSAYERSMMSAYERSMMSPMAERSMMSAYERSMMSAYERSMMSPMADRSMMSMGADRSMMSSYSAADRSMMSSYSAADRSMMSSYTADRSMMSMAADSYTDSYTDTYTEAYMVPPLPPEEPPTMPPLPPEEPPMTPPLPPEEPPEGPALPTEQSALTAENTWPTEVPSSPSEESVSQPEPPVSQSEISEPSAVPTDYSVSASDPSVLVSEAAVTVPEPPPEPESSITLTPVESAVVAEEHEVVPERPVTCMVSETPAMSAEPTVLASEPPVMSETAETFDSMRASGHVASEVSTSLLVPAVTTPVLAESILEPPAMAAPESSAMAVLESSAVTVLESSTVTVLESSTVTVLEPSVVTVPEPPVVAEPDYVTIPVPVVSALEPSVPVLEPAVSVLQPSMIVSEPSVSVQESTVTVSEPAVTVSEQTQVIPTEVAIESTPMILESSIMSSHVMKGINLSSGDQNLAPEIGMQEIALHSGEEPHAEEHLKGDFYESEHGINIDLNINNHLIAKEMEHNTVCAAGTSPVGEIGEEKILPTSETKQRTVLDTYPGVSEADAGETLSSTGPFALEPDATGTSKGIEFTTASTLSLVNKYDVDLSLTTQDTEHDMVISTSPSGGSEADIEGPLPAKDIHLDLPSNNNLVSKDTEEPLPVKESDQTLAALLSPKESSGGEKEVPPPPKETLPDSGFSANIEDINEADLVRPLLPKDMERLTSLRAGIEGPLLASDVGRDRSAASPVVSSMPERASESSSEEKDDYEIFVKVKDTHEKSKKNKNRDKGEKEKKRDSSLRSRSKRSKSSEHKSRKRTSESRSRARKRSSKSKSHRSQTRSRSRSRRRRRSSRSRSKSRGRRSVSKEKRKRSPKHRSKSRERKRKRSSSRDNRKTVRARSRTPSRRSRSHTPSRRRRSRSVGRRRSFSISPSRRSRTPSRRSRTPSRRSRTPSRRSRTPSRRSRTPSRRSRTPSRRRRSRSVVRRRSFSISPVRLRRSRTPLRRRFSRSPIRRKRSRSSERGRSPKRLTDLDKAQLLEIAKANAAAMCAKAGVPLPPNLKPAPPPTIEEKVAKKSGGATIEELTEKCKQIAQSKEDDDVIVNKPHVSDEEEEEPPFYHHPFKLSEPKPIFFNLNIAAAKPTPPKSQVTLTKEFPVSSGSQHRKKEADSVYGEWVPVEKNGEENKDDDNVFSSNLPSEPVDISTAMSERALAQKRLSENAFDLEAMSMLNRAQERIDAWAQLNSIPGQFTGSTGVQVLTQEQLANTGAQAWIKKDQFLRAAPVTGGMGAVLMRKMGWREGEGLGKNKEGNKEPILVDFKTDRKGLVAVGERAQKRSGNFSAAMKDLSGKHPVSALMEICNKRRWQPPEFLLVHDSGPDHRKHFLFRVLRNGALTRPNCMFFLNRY

With B1, the binding result with β-catenin is listed as “binds”.

B2: SC35 (protein, human, UniProt Q01130 2-221, looked up)
chain: SYGRPPPDVEGMTSLKVDNLTYRTSPDTLRRVFEKYGRVGDVYIPRDRYTKESRGFAFVRFHDKRDAEDAMDAMDGAVLDGRELRVQMARYGRPPDSHHSRRGPPPRRYGGGGYGRRSRSPRRRRRSRSRSRSRSRSRSRSRYSRSKSRSRTRSRSRSTSKSRSARRSKSKSSSVSRSRSRSRSRSRSRSPPPVSKRESKSRSRSKSPPKSPEEEGAVSS
On to B2, for which, in assay [1], the signal-to-background ratio is 170.
Take B3: the signal-to-background ratio worked out at 26 in the assay with E-cadherin [2], 70 with E-cadherin [3], 30 with E-cadherin [4] and 50 with E-cadherin [5].

These data come from patent publication US20240294983A1 (CALIFORNIA INSTITUTE OF TECHNOLOGY, published 2024).
